Data from the supplement of paper PMC9732359.
± gives the uncertainty stated by the source.

Assay: protein stability index of a GFP-peptide fusion (yeast GPS) (PSI 1-4); higher = more stable; sorted into four equal gates, so the index is relative within each strain
Summary of the method: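 Each library plasmid carries Cherry plus GFP with a tiled 17-residue yeast protein peptide fused downstream, and the pooled library was carried in yeast. Mid-log cultures in leucine-free medium were sorted into four equal gates by GFP/Cherry ratio. Reads from Illumina sequencing of PCR-amplified plasmids from each gate were assigned to strains by barcodes. Per peptide, the protein stability index was computed as the summed products of gate read frequency and gate number.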

Sequence	protein stability index (doa10∆)	protein stability index (pdr5∆)	protein stability index (san1∆)	protein stability index (ubr1∆)
AIMKPYYLWTGKQVFSL [RPO31]	2.71 ± 0.13	2.91 ± 0.11	2.83 ± 0.085	2.72 ± 0.061
AIRKNGQIDFWYQFSNS [SIN4]	2.09 ± 0.087	2.08 ± 0.08	1.77 ± 0.082	2.52 ± 0.056
AISTGAKIDVMLTIARL [RPN7]	3.31 ± 0.16	3.23 ± 0.099	3.33 ± 0.054	3.38 ± 0.075
AITADLGSSEAENLLQL [YGL172W/NUP49]		1.31 ± 0.21		
AITNTGPREDTTRVGGG [RPS5]	3.04 ± 0.074	3.05 ± 0.073	2.9 ± 0.07	3.18 ± 0.054
AKALESLASCLRSTEYS [POP1]	3.08 ± 0.16	3.25 ± 0.14	2.8 ± 0.13	2.61 ± 0.17
AKEELNGLKDQLNEERS [YIL149C/MLP2]	3.3 ± 0.14	3.42 ± 0.17	3.19 ± 0.075	3.41 ± 0.15
AKETHTKPSETPATIVK [YOR098C/NUP1]	3.28 ± 0.092	3.17 ± 0.066	2.87 ± 0.064	3.12 ± 0.066
AKGVYRPNGRKDHDLKI [POP1]	2.88 ± 0.078	3.08 ± 0.052	2.93 ± 0.049	3.03 ± 0.061
AKKQNRPLPQWIRLRTN [RPL39]	1.95 ± 0.063	2.69 ± 0.043	1.26 ± 0.082	2.44 ± 0.043
AKLIRSAIEHTTLKSVT [RPO21]	3.46 ± 0.15	2.96 ± 0.2	3.19 ± 0.19	3.04 ± 0.12
AKLWFYIYLSHETLARS [RPN3]	1.69 ± 0.088	1.4 ± 0.086	1.68 ± 0.15	1.65 ± 0.084
AKNETNSESDSKSDSDS [ITC1]	3.01 ± 0.05	3.03 ± 0.049	3.09 ± 0.047	2.88 ± 0.042
AKPDARTQAGDIVSIDI [MTW1]	3.27 ± 0.13	3.53 ± 0.13	3.55 ± 0.091	3.64 ± 0.098
AKRNLDANPSSQIIARN [SMC2]	2.49 ± 0.083	2.79 ± 0.076	3.09 ± 0.095	2.92 ± 0.065
AKSTPNTNPSPLKTQTK [GAL11]	2.82 ± 0.051	2.94 ± 0.046	2.64 ± 0.05	2.91 ± 0.038
AKTELNEVSLAIKKSSM [SMC2]	3.03 ± 0.06	3.12 ± 0.087	3.04 ± 0.11	2.96 ± 0.053
AKTFIDLESSSPELKAD [RPS7B]	3.03 ± 0.086	3.4 ± 0.077	3.29 ± 0.085	3.17 ± 0.085
ALAFCEIGITQQRIVSA [RRP4]	1.71 ± 0.11	2.31 ± 0.11	1.92 ± 0.23	2.25 ± 0.075
ALDIVCSDFVKILNLEK [NUT1]	2.7 ± 0.069	2.7 ± 0.07	2.35 ± 0.11	2.29 ± 0.099
ALENDVATNIVNEDPIF [YML103C/NUP188]	2.94 ± 0.051	3.1 ± 0.068	3.04 ± 0.052	3.05 ± 0.048
ALFFDPSLNPIPHFIDN [PRP8]	2.64 ± 0.058	2.77 ± 0.047	2.47 ± 0.057	2.61 ± 0.04
ALILADSEIEISSEKLL [RPP1A]	1.95 ± 0.13	1.87 ± 0.11	1.94 ± 0.096	2.06 ± 0.081
ALIRRDFTLIPRMASVF [CDC53]	2.12 ± 0.13	2.39 ± 0.072	2.64 ± 0.16	2.17 ± 0.14
ALLNFVLPKIFNSVKSF [SNF2]	2.44 ± 0.094	1.71 ± 0.066	1.98 ± 0.11	1.33 ± 0.043
ALPRKLRRRTASHNVRR [POP1]	2.91 ± 0.058	3.06 ± 0.06	2.79 ± 0.056	2.74 ± 0.039

Sequence	protein stability index (doa10∆)	protein stability index (pdr5∆)	protein stability index (san1∆)	protein stability index (ubr1∆)
ALRLSMEEEQQRQERLR [RPN10]	3.33 ± 0.16	3.06 ± 0.26	3.36 ± 0.065	3.38 ± 0.11
ALSLLYHLLNYDPIKRI [SSN3]	2.56 ± 0.073	2.05 ± 0.051	2.39 ± 0.072	2.19 ± 0.039
AMHNSKAASSTRIFQAL [POP1]	2.59 ± 0.093	2.54 ± 0.078	2.87 ± 0.14	2.89 ± 0.11
ANALGGLGVNRRILAAA [SSN3]	1.77 ± 0.068	1.69 ± 0.069	1.58 ± 0.16	1.92 ± 0.046
ANANANATANATANATA [SNF11]	3.14 ± 0.037	3.37 ± 0.037	3.285 ± 0.031	3.342 ± 0.029
ANDHDESIDVDMDAESN [SMC3]		2.37 ± 0.28		1.81 ± 0.25
ANIELTWAEGTFEQFKD [RPC37]	3.25 ± 0.12	3.18 ± 0.076	3.31 ± 0.16	3.32 ± 0.093
ANLGKYGILSIDDLIHE [RPL7A]	1.78 ± 0.092	1.98 ± 0.094	1.54 ± 0.17	1.15 ± 0.086
ANTGGQDKIELSEEETL [SNF2]	2.62 ± 0.12	2.8 ± 0.25	3.08 ± 0.063	2.94 ± 0.12
APIPKGRVKYTKRQKHF [POP1]	1.2 ± 0.13	1.9 ± 0.12	2.2 ± 0.13	1.77 ± 0.082
APIQLKIDLLSGQFYFR [RGR1]	2.63 ± 0.14	2.86 ± 0.16	2.15 ± 0.23	3.02 ± 0.082
APNNSNGGSEEEITCAL [MED7]	3.45 ± 0.094	3.45 ± 0.13	3.42 ± 0.095	3.31 ± 0.085
APQLFPYGSFHQQQLQQ [DSN1]	2.77 ± 0.076	2.84 ± 0.09	2.77 ± 0.087	3.15 ± 0.069
APSANQGDEALSVDDIR [RTT102]	3.15 ± 0.093	3.33 ± 0.1	2.98 ± 0.088	
APTGSGKTNIALLTVLK [BRR2]	2.88 ± 0.067	3.07 ± 0.073	3.35 ± 0.052	2.88 ± 0.049
APVEVQEDFEVVEEFTP [RPS5]	3.31 ± 0.076	3.21 ± 0.08	3.02 ± 0.049	2.94 ± 0.062
AQDSLTVTIASSLNLED [RPB8]	1.65 ± 0.048	1.92 ± 0.044	2.23 ± 0.079	1.89 ± 0.045
AQDVALAKKWFLQHPDE [PRP8]	2.7 ± 0.089	2.38 ± 0.095	2.33 ± 0.13	2.67 ± 0.077
AQFTFGKAATAKETHTK [YOR098C/NUP1]	2.84 ± 0.13	2.81 ± 0.17	2.84 ± 0.18	3.02 ± 0.18
AQGTKFRISLGLPVGAI [RPL23A]	1.94 ± 0.1	1.84 ± 0.063	1.42 ± 0.17	1.92 ± 0.11
AQLAKAKTELNEVSLAI [SMC2]	3 ± 0.077	2.75 ± 0.074	1.82 ± 0.097	2.61 ± 0.046
AQQVPPYGVYHPPFIKY [SIN4]	2.99 ± 0.12	1.61 ± 0.094	2.33 ± 0.074	2.18 ± 0.069
AQRLQISDYQQLESIYF [SWI1]	2.38 ± 0.05	1.95 ± 0.027	2.58 ± 0.043	2.76 ± 0.046
ARDIISHNFQNAIFQME [PCI8]	2.79 ± 0.063	2.94 ± 0.069	2.75 ± 0.046	2.92 ± 0.05
ARDLFLKIYYKEEFSSD [RRI2]		2.44 ± 0.15	2.03 ± 0.22	2.9 ± 0.1
